Several values for one entry are separate records, joined by “and”; a condition that tells them apart may be missing. Identical values can stand only once.
Legend:
[1] = target: streptavidin (streptavidin-coated magnetic beads, Dynal) (UniProt P22629); test: spores (in vivo), streptavidin-coated magnetic beads, washed, plated
[2] = target: streptavidin (streptavidin-coated magnetic beads, Dynal) (UniProt P22629); test: spores biotinylated in vivo, streptavidin-coated magnetic beads, washed, plated
[3] = target: streptavidin (streptavidin-coated magnetic beads, Dynal) (UniProt P22629); test: spores incubated in vitro with BirA, biotin and ATP, then streptavidin-coated beads
[4] = target: streptavidin (streptavidin-coated magnetic beads, Dynal) (UniProt P22629); test: spores biotinylated in vivo, streptavidin-coated magnetic beads, washed, plated; input 919,300
[5] = target: streptavidin (streptavidin-coated magnetic beads, Dynal) (UniProt P22629); test: spores incubated in vitro with BirA, biotin and ATP, then streptavidin-coated beads; input 176,900
[6] = target: streptavidin (streptavidin-coated magnetic beads, Dynal) (UniProt P22629); test: spores (in vivo), streptavidin-coated magnetic beads, washed, plated; input 814,900
[7] = target: streptavidin (streptavidin-coated magnetic beads, Dynal) (UniProt P22629); test: spores incubated in vitro with BirA, biotin and ATP, then streptavidin-coated beads; input 234,900
[8] = target: streptavidin (streptavidin-coated magnetic beads, Dynal) (UniProt P22629); test: streptavidin-coated beads capture; phage from host cells grown without added biotin
[9] = target: modified streptavidin Stv-38; test: phage on microtiter wells coated with Stv-38, washed, eluted with 3 mM biotin, plated on TG1 cells
[10] = target: streptavidin (streptavidin-coated magnetic beads, Dynal) (UniProt P22629); test: phage incubated with streptavidin-coated beads, washed, released with Factor Xa, plated on TG1 cells
[11] = target: streptavidin (streptavidin-coated magnetic beads, Dynal) (UniProt P22629); test: streptavidin-coated beads capture; phage from host cells grown without added biotin; 109,000 phage used
[12] = target: modified streptavidin Stv-38; test: phage on microtiter wells coated with Stv-38, washed, eluted with 3 mM biotin, plated on TG1 cells; input 250,000
[13] = target: streptavidin (streptavidin-coated magnetic beads, Dynal) (UniProt P22629); test: phage incubated with streptavidin-coated beads, washed, released with Factor Xa, plated on TG1 cells; 96,500 phage used
[14] = target: streptavidin (streptavidin-coated magnetic beads, Dynal) (UniProt P22629); test: spores biotinylated in vivo, streptavidin-coated magnetic beads, washed, plated; input 10,000
[15] = target: streptavidin (streptavidin-coated magnetic beads, Dynal) (UniProt P22629); test: spores biotinylated in vivo, streptavidin-coated magnetic beads, washed, plated; input 1,075,900
[16] = target: streptavidin (streptavidin-coated magnetic beads, Dynal) (UniProt P22629); test: spores incubated in vitro with BirA, biotin and ATP, then streptavidin-coated beads; input 919,600
[17] = target: modified streptavidin Stv-38; test: phage on microtiter wells coated with Stv-38, washed, eluted with 3 mM biotin, plated on TG1 cells; input 159,500
[18] = target: modified streptavidin Stv-38; test: phage on microtiter wells coated with Stv-38, washed, eluted with 3 mM biotin, plated on TG1 cells; input 1,590,500
[19] = target: streptavidin (streptavidin-coated magnetic beads, Dynal) (UniProt P22629); test: phage incubated with streptavidin-coated beads, washed, released with Factor Xa, plated on TG1 cells; 97,500 phage used
[20] = target: streptavidin (streptavidin-coated magnetic beads, Dynal) (UniProt P22629); test: spores (in vivo), streptavidin-coated magnetic beads, washed, plated; input 843,900
[21] = target: streptavidin (streptavidin-coated magnetic beads, Dynal) (UniProt P22629); test: spores incubated in vitro with BirA, biotin and ATP, then streptavidin-coated beads; input 417,600

Sequence of spores of PY79-BirA-1G (Fusion 1: peptide-G added to the C-terminus of CotB following residue 275) (P07789 1-275): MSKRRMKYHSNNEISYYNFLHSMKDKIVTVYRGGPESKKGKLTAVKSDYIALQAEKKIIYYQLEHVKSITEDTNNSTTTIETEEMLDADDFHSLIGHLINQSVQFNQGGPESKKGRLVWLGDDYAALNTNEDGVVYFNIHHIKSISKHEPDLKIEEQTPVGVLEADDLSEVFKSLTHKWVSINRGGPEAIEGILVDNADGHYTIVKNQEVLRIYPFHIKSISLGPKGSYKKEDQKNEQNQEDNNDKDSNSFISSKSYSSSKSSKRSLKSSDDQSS
Sequence of spores of PY79-BirA-1K (Fusion 1: peptide-K added to the C-terminus of CotB following residue 275) (P07789 1-275): as above
Sequence of bacteriophage G (M13 phage displaying on pIII the control peptide with the lysine recognized by BirA replaced by glycine) (P69168 19-424): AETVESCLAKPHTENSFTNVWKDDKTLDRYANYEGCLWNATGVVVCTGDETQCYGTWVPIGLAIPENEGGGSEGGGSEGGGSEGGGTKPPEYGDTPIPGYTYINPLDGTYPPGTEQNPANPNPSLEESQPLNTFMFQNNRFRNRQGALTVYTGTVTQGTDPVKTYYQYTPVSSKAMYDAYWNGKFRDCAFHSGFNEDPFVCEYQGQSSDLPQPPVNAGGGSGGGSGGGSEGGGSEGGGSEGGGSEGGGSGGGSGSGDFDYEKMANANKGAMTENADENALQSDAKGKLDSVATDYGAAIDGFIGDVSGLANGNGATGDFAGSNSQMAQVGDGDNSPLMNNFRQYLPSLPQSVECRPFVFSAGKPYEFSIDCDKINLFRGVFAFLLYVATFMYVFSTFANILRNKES
Sequence of bacteriophage K (M13 phage displaying on coat protein pIII the 33-residue peptide recognized by BirA) (P69168 19-424): as above
Sequence of spores of PY79-BirA-3K (Fusion 3: Fusion 1 with peptide-K, with the last 41 amino acids of CotB added to its C-terminus) (P07789 whole entry, the tested form may be a part): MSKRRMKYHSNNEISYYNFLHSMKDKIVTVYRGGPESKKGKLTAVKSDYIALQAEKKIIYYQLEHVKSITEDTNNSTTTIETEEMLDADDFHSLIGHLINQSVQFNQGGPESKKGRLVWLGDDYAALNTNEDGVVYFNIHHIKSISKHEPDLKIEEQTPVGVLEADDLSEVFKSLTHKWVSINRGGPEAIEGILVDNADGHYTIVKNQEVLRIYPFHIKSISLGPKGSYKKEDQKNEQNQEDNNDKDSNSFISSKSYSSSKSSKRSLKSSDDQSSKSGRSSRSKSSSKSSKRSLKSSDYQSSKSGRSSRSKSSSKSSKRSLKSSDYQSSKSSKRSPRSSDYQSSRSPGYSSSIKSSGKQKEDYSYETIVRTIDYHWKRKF
Sequence of spores of PY79-BirA-3G (Fusion 3: Fusion 1 with peptide-G, with the last 41 amino acids of CotB added to its C-terminus) (P07789 whole entry, the tested form may be a part): as above
Sequence of streptavidin (streptavidin-coated magnetic beads, Dynal) (P22629 37-163 limits assumed): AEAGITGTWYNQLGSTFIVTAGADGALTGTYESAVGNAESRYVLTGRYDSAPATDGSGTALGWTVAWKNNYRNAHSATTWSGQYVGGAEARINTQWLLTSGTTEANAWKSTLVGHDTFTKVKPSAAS
Sequence of spores of PY79-BirA-2K (Fusion 2: peptide-K at the amino end of the first 275 amino acids of CotB) (P07789 1-275): as the sequence (P07789 1-275) above
Sequence of spores of PY79-BirA-2G (Fusion 2: peptide-G at the amino end of the first 275 amino acids of CotB) (P07789 1-275): as above

Substance: spores of PY79-BirA-2G (Fusion 2: peptide-G at the amino end of the first 275 amino acids of CotB) (from UniProt P07789 1-275)
- Ratio (%) [1]: 0%

Substance: spores of PY79-BirA-3K (Fusion 3: Fusion 1 with peptide-K, with the last 41 amino acids of CotB added to its C-terminus) (from UniProt P07789 1-275; P07789 340-380)
- Ratio (%) [2]: 0.0283%
- Ratio (%) [3]: 0.071%
- Out (#) [4]: 260 spores
- Out [5]: 125 spores

Substance: spores of PY79-BirA-3G (Fusion 3: Fusion 1 with peptide-G, with the last 41 amino acids of CotB added to its C-terminus) (from UniProt P07789 1-275; P07789 340-380)
- Ratio (%) [1]: 0.0049%
- Out (#) [6]: 240 spores
- Ratio (%) [3]: 0.106%
- Out [7]: 250 spores

Substance: bacteriophage K (M13 phage displaying on coat protein pIII the 33-residue peptide recognized by BirA) (from UniProt P69168 19-424)
- % bound [8]: 0.78%
- Ratio (%) [9]: 0.504% and 0.852%
- % bound [10]: 1.11%
- # of bound phage [11]: 850 phage
- Bound [12]: 2130 phage
- # of bound phage able to bind TG1 cells [13]: 1080 phage

Substance: spores of PY79-BirA-2K (Fusion 2: peptide-K at the amino end of the first 275 amino acids of CotB) (from UniProt P07789 1-275)
- Ratio (%) [2]: 9.2%
- Out (#) [14]: 920 spores

Substance: spores of PY79-BirA-1K (Fusion 1: peptide-K added to the C-terminus of CotB following residue 275) (from UniProt P07789 1-275)
- Ratio (%) [2]: 0.0279%
- Ratio (%) [3]: 3.26%
- Out (#) [15]: 300 spores
- Out [16]: 30000 spores

Substance: bacteriophage G (M13 phage displaying on pIII the control peptide with the lysine recognized by BirA replaced by glycine) (from UniProt P69168 19-424)
- Ratio (%) [9]: 0.002% and 0.004%
- % bound [10]: 0.013%
- Bound [17]: 7 phage
- Bound [18]: 27 phage
- # of bound phage able to bind TG1 cells [19]: 13 phage

Substance: spores of PY79-BirA-1G (Fusion 1: peptide-G added to the C-terminus of CotB following residue 275) (from UniProt P07789 1-275)
- Ratio (%) [1]: 0.0118%
- Out (#) [20]: 100 spores
- Ratio (%) [3]: 0.299%
- Out [21]: 1250 spores
